Results from publication PMC9490022, “Enhanced salt-tolerance of Bacillus subtilis glutaminase by fusing self-assembling amphipathic peptides at its N-terminus” (Frontiers in Bioengineering and Biotechnology, 2022).

B1: EAK16-E3C/E55F/D213T (Bacillus subtilis subsp. subtilis str. 168; D213T/E3C/E55F) (protein)
chain: KCLIKEHQKDINPALQLHDWVEYYRPFAANGQSANYIPALGKVNDSQLGICVLFPDGTMIHAGDWNVSFTMQSISKVISFIAACMSRGIPYVLDRVDVEPTGDAFNSIIRLEINKPGKPFNPMINAGALTIASILPGESAYEKLEFLYSVMETLIGKRPRIHEEVFRSEWETAHRNRALAYYLKETNFLEAEVEETLEVYLKQCAMESTTETIALIGLILAHDGYHPIRHEQVIPKDVAKLAKALMLTCGMYNASGKYAAFVGVPAKSGVSGGIMALVPPSARREQPFQSGCGIGIYGPAIDEYGNSLTGGMLLKHMAQEWELSIF
notes: N-terminal His-tag, designed peptide EAK16 (…) and PT linker (…) fused to N-terminus of triple mutant; expressed in B. subtilis WB600; oligomerises
B2: E3C/E55F/D213T (Bacillus subtilis subsp. subtilis str. 168; D213T/E3C/E55F) (protein)
chain: MKCLIKEHQKDINPALQLHDWVEYYRPFAANGQSANYIPALGKVNDSQLGICVLFPDGTMIHAGDWNVSFTMQSISKVISFIAACMSRGIPYVLDRVDVEPTGDAFNSIIRLEINKPGKPFNPMINAGALTIASILPGESAYEKLEFLYSVMETLIGKRPRIHEEVFRSEWETAHRNRALAYYLKETNFLEAEVEETLEVYLKQCAMESTTETIALIGLILAHDGYHPIRHEQVIPKDVAKLAKALMLTCGMYNASGKYAAFVGVPAKSGVSGGIMALVPPSARREQPFQSGCGIGIYGPAIDEYGNSLTGGMLLKHMAQEWELSIF
notes: full-length triple mutant, N-terminal His-tag kept, expressed in B. subtilis WB600 (pP43NMK), about 40 kDa

Substrate: NC(=O)CC[C@H](N)C(=O)O
Assay: purified protein
Format: biochemical, Bacillus subtilis
Conditions: 10–100 mM L-glutamine, 20 mM potassium phosphate, pH 7.5, 37°C, no NaCl

Row | Protein | Km [mM] | kcat/Km [M⁻¹ s⁻¹] | kcat [s⁻¹]
1 | B1 | 18.45 ± 1.2 | 174000 ± 4200 | –
2 | B2 | 22.72 ± 1.5 | 162000 ± 3240 | 3730 ± 190
